Each binder was assayed against T1, human GPIIb/IIIa on human platelets (human, UniProt P08514 32-1039; P05106 27-788) (assay: flow cytometry, protein spiked in diluted (1:50) human whole blood, FITC-anti-FVII on CD42b-stained platelets).
T1 construct: Native receptor on gel-purified human platelets or platelets in diluted human whole blood; also called platelets in human whole blood

binding result | Binder
no binding | rFVIIa (enzyme, Control without targeting moiety) chain 1: ANAFLEELRPGSLERECKEEQCSFEEAREIFKDAERTKLFWISYSDGDQCASSPCQNGGSCKDQLQSYICFCLPAFEGRNCETHKDDQLICVNENGGCEQYCSDHTGTKRSCRCHEGYSLLADGVSCTPTVEYPCGKIPILEKRNASKPQGR chain 2: IVGGKVCPKGECPWQVLLLVNGAQLCGGTLINTIWVVSAAHCFDKIKNWRNLIAVLGEHDLSEHDGDEQSRRVAQVIIPSTYVPGTTNHDIALLRLHQPVVLTDHVVPLCLPERTFSERTLAFVRFSLVSGWGQLLDRGATALELMVLNVPRLMTQDCLQQSRKVGDSPNITEYMFCAGYSDGSKDSCKGDSGGPHATHYRGTWYLTGIVSWGQGCATVGHFGVYTRVSQYIEWLQKLMRSEPRPGVLLRAPFP

Each binder was assayed against T2, mouse platelets (mouse GPIIb/IIIa) (mouse, UniProt Q9QUM0 32-1033; O54890 26-787) (assay: binding to platelets in mouse blood (method not detailed; flow cytometry implied)).
T2 construct: whole, on cells; the receptor is inferred from the antibody's target
T2 sequence (Q9QUM0 32-1033, chain 1 of 2): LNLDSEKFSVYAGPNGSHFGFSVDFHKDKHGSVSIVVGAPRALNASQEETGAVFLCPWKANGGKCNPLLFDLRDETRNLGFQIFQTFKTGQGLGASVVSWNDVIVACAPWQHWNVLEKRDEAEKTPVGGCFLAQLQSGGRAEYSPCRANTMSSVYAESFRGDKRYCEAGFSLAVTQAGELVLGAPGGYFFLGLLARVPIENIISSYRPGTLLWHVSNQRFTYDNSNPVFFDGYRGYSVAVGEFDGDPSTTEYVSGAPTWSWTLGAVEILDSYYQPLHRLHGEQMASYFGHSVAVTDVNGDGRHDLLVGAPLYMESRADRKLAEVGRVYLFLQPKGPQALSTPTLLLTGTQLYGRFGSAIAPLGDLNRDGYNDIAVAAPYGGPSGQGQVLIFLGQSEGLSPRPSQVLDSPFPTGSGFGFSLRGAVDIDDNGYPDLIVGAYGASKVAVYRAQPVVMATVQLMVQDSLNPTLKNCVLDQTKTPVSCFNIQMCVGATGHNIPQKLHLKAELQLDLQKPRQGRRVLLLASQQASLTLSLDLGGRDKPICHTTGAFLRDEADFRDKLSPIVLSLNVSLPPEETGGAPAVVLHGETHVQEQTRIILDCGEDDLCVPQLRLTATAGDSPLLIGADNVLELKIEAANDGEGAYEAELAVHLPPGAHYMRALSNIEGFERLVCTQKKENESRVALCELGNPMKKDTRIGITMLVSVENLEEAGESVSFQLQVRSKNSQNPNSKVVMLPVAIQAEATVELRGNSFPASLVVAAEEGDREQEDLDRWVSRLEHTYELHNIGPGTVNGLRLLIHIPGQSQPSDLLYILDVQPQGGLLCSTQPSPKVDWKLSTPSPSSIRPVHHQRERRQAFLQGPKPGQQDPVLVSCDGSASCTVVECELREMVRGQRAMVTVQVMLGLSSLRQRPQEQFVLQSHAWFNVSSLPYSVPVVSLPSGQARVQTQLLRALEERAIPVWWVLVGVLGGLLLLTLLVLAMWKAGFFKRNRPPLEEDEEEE
T2 sequence (O54890 26-787, chain 2 of 2): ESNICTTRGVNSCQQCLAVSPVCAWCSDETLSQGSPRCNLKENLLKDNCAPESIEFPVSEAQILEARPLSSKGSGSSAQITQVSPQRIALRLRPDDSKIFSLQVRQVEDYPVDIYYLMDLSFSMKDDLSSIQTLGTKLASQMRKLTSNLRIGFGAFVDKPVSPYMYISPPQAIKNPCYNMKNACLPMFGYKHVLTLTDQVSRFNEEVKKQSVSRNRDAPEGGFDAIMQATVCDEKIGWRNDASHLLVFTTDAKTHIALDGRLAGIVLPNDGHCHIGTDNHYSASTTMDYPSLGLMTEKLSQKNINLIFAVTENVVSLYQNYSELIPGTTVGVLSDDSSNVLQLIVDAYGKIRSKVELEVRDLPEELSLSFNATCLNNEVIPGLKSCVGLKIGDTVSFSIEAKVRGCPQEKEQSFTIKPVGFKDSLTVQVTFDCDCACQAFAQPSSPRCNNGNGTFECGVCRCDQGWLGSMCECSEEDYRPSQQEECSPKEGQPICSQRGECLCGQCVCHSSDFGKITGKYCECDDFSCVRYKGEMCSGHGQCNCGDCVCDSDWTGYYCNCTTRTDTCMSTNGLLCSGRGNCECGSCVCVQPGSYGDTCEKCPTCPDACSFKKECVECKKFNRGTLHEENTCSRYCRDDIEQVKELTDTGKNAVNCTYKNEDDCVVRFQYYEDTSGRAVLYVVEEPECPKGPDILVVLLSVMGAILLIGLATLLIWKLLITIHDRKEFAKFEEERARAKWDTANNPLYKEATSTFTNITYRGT

binding result | Binder
no binding | 34D10 (antibody, V domains shown, Mouse monoclonal from BALB/c hybridoma, tested as hybridoma supernatant (detected with anti-mouse IgG); also called monoclonal antibody 34D10; 34D10 antibody) VH: EVKLVESGGGLVKPGGSLKLSCAASGFTFSAYAMSWVRQTPEKRLEWVASISSGGTTYYPDSVKRRFTISRDNARNILYLQMSSLRSEDTAMYYCTRGGDYGYALDYWGQGTSVTVSS VL: ENVLTQSPAIMSASLGEKVTMSCRASSSVNYMYWYQQKSDASPKLWIYYTSNLAPGVPARFSGSGSGNSYSLTISSMEGEDAATYYCQQFSSSPWTFGGGTKLEIKR

These binders were tested against T1, human GPIIb/IIIa on human platelets (assay: flow cytometry, hybridoma supernatant on human platelets).
Method: Hybridomas were then screened for binding to human and cynomolgus monkey platelets using flow cytometry, and for binding to GPIIb/IIIa using Enzyme-linked immunosorbent assays (ELISA). To determine binding to human and money platelets, gel-purified human or monkey (cynomolgus) platelets in Tyrode's buffer were incubated with hybridoma supernatant. Following a 30 minute incubation, cells were fixed in 1% formaldehyde. Following fixation, cells were washed in Tyrode's buffer and a detection antibody was added (Jackson Immunoresearch goat anti-mouse IgG-PE conjugated). Antibody binding was detected by flow cytometry.

binding result | Binder
binds | 18F7 (antibody, V domains shown, Mouse monoclonal from BALB/c hybridoma, tested as hybridoma supernatant; also called 18F7 antibody) VH: QVQLKESGPGLVAPSQSLSITCTVSGFSLTSYGVSWVRQPPGKGLEWLGIIWGDGSTNYHSVLKSRLSISKDNSKSQVFLKLNSLQTDDTATYYCAKQDFDVWGAGTTVTVSS VL: DVQMIQSPFSLSASLGDIVTMTCQASQGTSINLNWFQQKPGKAPKLLIYGVSNLEDGVPSRFSGSRYGTDFTLTIGSLEDEDMATYFCLQHSYLPYTFGGGTKLEIKR
binds | 34D10 (antibody, V domains shown, Mouse monoclonal from BALB/c hybridoma, tested as hybridoma supernatant (detected with anti-mouse IgG); also called monoclonal antibody 34D10; 34D10 antibody) VH: EVKLVESGGGLVKPGGSLKLSCAASGFTFSAYAMSWVRQTPEKRLEWVASISSGGTTYYPDSVKRRFTISRDNARNILYLQMSSLRSEDTAMYYCTRGGDYGYALDYWGQGTSVTVSS VL: ENVLTQSPAIMSASLGEKVTMSCRASSSVNYMYWYQQKSDASPKLWIYYTSNLAPGVPARFSGSGSGNSYSLTISSMEGEDAATYYCQQFSSSPWTFGGGTKLEIKR
binds | 4B11 (antibody, V domains shown, Mouse monoclonal from BALB/c hybridoma, tested as hybridoma supernatant; also called 4B11 antibody) VH: EVKLVESGGGLVKPGGSLKLSCAASGFTFSSYAMSWVRQTPEKRLAWVASISSGGNIYFPDSVKGRFTISRDDARNILYLQMRSLRSEDTAMYYCARGGDYGYAMDYWGQGTSVTVSS VL: ENVLTQSPAIMSASLGEKVTMNCRASSSVNYMYWYQQKSDASPKLWIFYTSNLAPGVPARFSGSGSGNSYSLTISSMEGEDAATYYCQQFSSSPWTFGGGSKLEIKR
binds | 36A8 (antibody, V domains shown, Mouse monoclonal from BALB/c hybridoma, tested as hybridoma supernatant; also called 36A8 antibody) VH: EVRLVESGGGLVKPGGSLKLSCAASGFTFSTYAMSWVRQTPEKRLEWVASINGGGSTYYPDSVKGRFTISRDNARNILYLQMRSLRSEDTAMYYCARGGDYGYALDYWGQGTSVTVSS VL: ENVLTQSPAIMSASLGEKVTMNCRASSSVNYMYWYQQKSDASPKLWIFYTSNLAPGVPARFSGSGSGNSYSLTISSMEGEDAATYYCQQFSSSPWTFGGGSKLEIKR
binds | 28C2 (antibody, V domains shown, Mouse monoclonal from BALB/c hybridoma, tested as hybridoma supernatant; also called 28C2 antibody) VH: QVTLKASGPGIVQPSQTLSLTCSFSGFSLNTSGMGVGWIRQPSGKGLEWLAHIWWDDDKRYNPALKSRLTISKDTSNNQIFLKIASVDTADTATYYCARSHYYGTFYFDYWGQGTTLTVSS VL: DVQITQSPSYLAASPGETITINCRASKSISKYLAWYQEKPGTTYKLLIYSGSTLQSGIPSRFSGSGSGTDFTLTISSLEPEDFAMYYCQQHIEYPWTFGGGTKLEIKR
binds | 9D6 (antibody, V domains shown, Mouse monoclonal from BALB/c hybridoma, tested as hybridoma supernatant; also called 9D6 antibody) VH: QVTLKESGPGILQPSQTLSLTCSFSGFSLSTSGMGVGWIRQSSGKGLEWLAHIWWDDDKRYNPTLKSRLTISKDTSNNQVFLKIANMDTADIATYYCARSHYNGTFYFDFWGQGITLTVSS VL: DVQITQSPSYLAASPGETITINCRASKSISKYLAWYQEKPGKTNKLLIYSGSTLQSGIPSRFSGSGSGTDFTLTISTLEPEDFAMYYCQQHIEYPWTFGGGTKLEIKR
binds | 28F4 (antibody, V domains shown, Mouse monoclonal from BALB/c hybridoma, tested as hybridoma supernatant; also called 28F4 antibody) VH: EVQLVESGGDLVKPGGSLKLSCAASGFTFSNYGMSWVRQTPDKRLEWVATISSGGTYTYYPDSVKGQFTIFRDNAKNTLYLQMSSLKSEDTAMYYCTRRDYDYEGFAYWGQGTLVTVS VL: DIVLTQSPATLSVTPGDSVSLSCRASQSISNNLHWYQQKSHESPRLLIKYASHSISGIPSRFSGSGSGTDFTLSINSVETEDFGMYFCQQSNNWPFTFGSGTKLEIKR
binds | 12B2 (antibody, V domains shown, Mouse monoclonal from BALB/c hybridoma, tested as hybridoma supernatant; also called 12B2 antibody) VH: QVQLQQSGAELTKPGASVKISCKATGYTFSSYWIEWVKQRPGHGLEWIGEILPGSGITKYNDKFKGKATFTADTSSNTAYMQLSSLTSEDSAVYSCARLISYYYAMDYWGQGTSVTVSS VL: DIQMTQTTSSLSASLGDRVTISCRASQDISNYLNWYQQKPDGTVKLLIYYTSRLHSGVPSRFSGSGSGTDYSLTISNLEQEDIATYFCQQGNTLPPTFGGGTKLEIKR
binds | 1H6 (antibody, V domains shown, Mouse monoclonal from BALB/c hybridoma, tested as hybridoma supernatant; also called 1H6 antibody) VH: QVQLQQSGAELVRPGTSVKVSCKASGYAFTNYLIEWVKQRPGQGLEWIGVINPGSGGTNYNEKFKGKATLTADKSSSTAYMHLSSLTSDDSAVYFCARGRYEWYFDVWGAGTTVTVSS VL: DIQMTQTTSSLSASLGDRVTISCRASQDITNYLNWYQRKPDGTVKLLIYYTSRLHSGVPSRFSGSGSGTDYSLTISNLEQEDIATYFCQQGYTLPYTFGGGTKLEIKR
binds | 38A8 (antibody, V domains shown, Mouse monoclonal from BALB/c hybridoma, tested as hybridoma supernatant; also called 38A8 antibody) VH: QVQLQQSGAELVRPGTSVKVSCKASGYAFTNYLIEWIKQRPGQGLEWIGVINPGSGGTNYNEKFKGKATLTADKSSSTAYMQLSSLTSDDSAVYFCARGRYEWYFDVWGAGTTVTVSS VL: DIQMTQTTSSLSASLGDRVTISCRASQDISNYLNWYLQKPDGTVKLLIYYTSRLHSGVPSRFSGSGSGTDYSLSISNLEQEDIATYFCQQGYTLPYTFGGGTKLEIKR

Reference: patent publication US20160115467A1 (Biogen, published 2016)
